In US20260209386A1 (MYTHIC THERAPEUTICS, published 2026):
Where a chain is given by its changes, count along the chain named.

T1: Human PTK7 (human, UniProt Q13308 31-1070)
T1 sequence: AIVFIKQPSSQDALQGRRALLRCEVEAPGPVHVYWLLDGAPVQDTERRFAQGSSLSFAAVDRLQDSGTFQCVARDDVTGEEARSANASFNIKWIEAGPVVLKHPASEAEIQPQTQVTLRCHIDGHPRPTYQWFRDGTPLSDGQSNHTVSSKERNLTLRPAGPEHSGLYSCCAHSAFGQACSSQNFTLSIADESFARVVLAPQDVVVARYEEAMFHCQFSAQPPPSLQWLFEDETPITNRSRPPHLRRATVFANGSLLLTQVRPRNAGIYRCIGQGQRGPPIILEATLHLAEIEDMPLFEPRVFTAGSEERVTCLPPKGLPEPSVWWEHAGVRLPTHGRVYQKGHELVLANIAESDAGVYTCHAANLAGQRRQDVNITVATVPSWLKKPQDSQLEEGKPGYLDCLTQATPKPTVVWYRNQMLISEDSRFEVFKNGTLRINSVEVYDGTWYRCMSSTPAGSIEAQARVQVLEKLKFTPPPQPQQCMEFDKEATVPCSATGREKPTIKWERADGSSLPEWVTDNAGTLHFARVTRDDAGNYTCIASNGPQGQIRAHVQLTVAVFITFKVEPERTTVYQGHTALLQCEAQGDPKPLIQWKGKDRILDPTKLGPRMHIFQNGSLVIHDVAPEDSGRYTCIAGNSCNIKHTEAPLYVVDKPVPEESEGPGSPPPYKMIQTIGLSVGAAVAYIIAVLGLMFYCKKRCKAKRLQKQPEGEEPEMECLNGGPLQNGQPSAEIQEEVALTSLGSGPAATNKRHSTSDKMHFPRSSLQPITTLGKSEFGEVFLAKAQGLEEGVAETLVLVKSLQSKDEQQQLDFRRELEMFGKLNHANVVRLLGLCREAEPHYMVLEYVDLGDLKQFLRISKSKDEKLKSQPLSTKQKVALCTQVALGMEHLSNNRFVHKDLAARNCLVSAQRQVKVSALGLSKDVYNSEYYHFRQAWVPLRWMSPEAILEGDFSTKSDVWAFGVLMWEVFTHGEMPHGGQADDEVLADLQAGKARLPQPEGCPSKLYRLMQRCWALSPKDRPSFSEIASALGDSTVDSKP

B1: MYT11292 (antibody, V domains shown)
VH: EVQLVESGGGLVQPGGSLRLSCTASGIDLSRYSMGWVRQAPGKGLEWVGIISYGGSTYYASWAKGRFTISRDTSKNTVYLQMNSLRAEDTAVYFCARVGYPGYSGYGHAFDAFDPWGQGTLVTVSS
VL: EIVMTQSPSTLSASVGDRVIITCQSSKSVYNDNWLSWYQQKPGKAPKLLIYGASTLASGVPSRFSGSGSGAEFTLTISSLQPDDFATYYCAGGYSSSSDNGFGQGTKLTVL
B2: MYT11294 (antibody, V domains shown)
VH: B1 VH with H108Y, F110H
VL: B1 VL
B3: MYT11321 (antibody, V domains shown)
VH: B1 VH with H108Y
VL: B1 VL with L56H
B4: MYT11331 (antibody, V domains shown)
VH: B1 VH with H108Y
VL: B1 VL with S98H
B5: MYT11326 (antibody, V domains shown)
VH: B1 VH with H108Y
VL: B1 VL with G93H
B6: MYT11307 (antibody, V domains shown)
VH: B1 VH with H108Y
VL: B1 VL with K27H
B7: MYT11305 (antibody, V domains shown)
VH: B1 VH with H108Y
VL: B1 VL with S25H
B8: MYT11328 (antibody, V domains shown)
VH: B1 VH with H108Y
VL: B1 VL with S95H
B9: MYT11324 (antibody, V domains shown)
VH: B1 VH with H108Y
VL: B1 VL with A91H
B10: MYT11316 (antibody, V domains shown)
VH: B1 VH with H108Y
VL: B1 VL with S36H
B11: MYT11310 (antibody, V domains shown)
VH: B1 VH with H108Y
VL: B1 VL with Y30H
B12: MYT11297 (antibody, V domains shown)
VH: B1 VH with H108Y, F113H
VL: B1 VL
B13: MYT11293 (antibody, V domains shown)
VH: B1 VH with H108Y, A109H
VL: B1 VL
B14: MYT11303 (antibody, V domains shown)
VH: B1 VH with H108Y, D114A
VL: B1 VL
B15: MYT11327 (antibody, V domains shown)
VH: B1 VH with H108Y
VL: B1 VL with Y94H
B16: MYT11315 (antibody, V domains shown)
VH: B1 VH with H108Y
VL: B1 VL with L35H

Target: T1, Human PTK7
Assay: cell-based or functional assay

| Binder | Internalization, FOW @ 25 nM (fold over the wildtype, parental antibody) |
| --- | --- |
| B1 | 1.59 fold over parental antibody |
| B2 | 1.66 fold over parental antibody |
| B3 | 1.36 fold over parental antibody |
| B4 | 1.77 fold over parental antibody |
| B5 | 1.29 fold over parental antibody |
| B6 | 1.82 fold over parental antibody |
| B7 | 1.37 fold over parental antibody |
| B8 | 1.99 fold over parental antibody |
| B9 | 1.58 fold over parental antibody |
| B10 | 1.55 fold over parental antibody |
| B11 | 1.64 fold over parental antibody |
| B12 | 1.51 fold over parental antibody |
| B13 | 1.65 fold over parental antibody |
| B14 | 1.51 fold over parental antibody |
| B15 | 1.6 fold over parental antibody |
| B16 | 1.51 fold over parental antibody |
